Assay results reported in the RNAGym collection of RNA variant scans (doi:10.1093/nar/gkz1192).

B1: CPEB3 Ribozyme (parent)
chain: UAACAGGGGGCCACAGCAGAAGCGUUCACGUCGCAGCCCCUGUCAGAUUCUGGUGAAUCUGCGAAUUCUGCUGUAUAUCUC

Variants of: B1
Test: self-cleavage, relative activity (ratio to wild type); higher = more cleavage; in vitro, sequencing
How it was run: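 Libraries of CPEB3 self-cleaving ribozyme mutants came from rounds of error-prone PCR and carried barcodes, which DNA sequencing matched to variants. In vitro transcription used T7 RNA polymerase at 37°C for 5 hours, with a further 15 min in DNase I before EDTA stopped the reaction; the ribozymes cleaved during both steps. The RNA was reverse transcribed with template switching and sequenced on Illumina. Relative activity is the cleaved/total read fraction of a variant divided by that of the unmutated ribozyme, averaged over three batches with at least 5 reads.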

**Q.** With U1C C12U as the variant, how does the self-cleavage read?
**A.** 1.22

**Q.** With A2G G42U as the variant, how does the self-cleavage read?
**A.** 0.55

**Q.** Which self-cleavage does the source give for A2G G42A here?
**A.** 0.05

**Q.** For U1G G8C, which self-cleavage is on record?
**A.** 0.59

**Q.** With U1C A35U as the variant, how does the self-cleavage read?
**A.** 0.33

**Q.** With U1C A35C as the variant, how does the self-cleavage read?
**A.** 0.71

**Q.** With U1C A35G as the variant, how does the self-cleavage read?
**A.** 1.24

**Q.** Which self-cleavage does the source give for U1C G7C here?
**A.** 0.44

**Q.** With U1C G7A as the variant, how does the self-cleavage read?
**A.** 0.09

**Q.** For U1G C23U, which self-cleavage is on record?
**A.** 0.49

**Q.** With U1G A28G as the variant, how does the self-cleavage read?
**A.** 0.55

**Q.** Which self-cleavage does the source give for U1G A28C here?
**A.** 0.6

**Q.** With U1C G6C as the variant, how does the self-cleavage read?
**A.** 0.56

**Q.** Which self-cleavage does the source give for U1C G6A here?
**A.** 0.3

**Q.** With A2G C14U as the variant, how does the self-cleavage read?
**A.** 0.49

**Q.** Which self-cleavage does the source give for A2G C4U here?
**A.** 1.09

**Q.** With U1G G53C as the variant, how does the self-cleavage read?
**A.** 0.89

**Q.** For U1G A56G, which self-cleavage is on record?
**A.** 0.92

**Q.** Which self-cleavage does the source give for U1C A47G here?
**A.** 0.9

**Q.** Which self-cleavage does the source give for U1C A47U here?
**A.** 0.47

**Q.** With U1C C68G as the variant, how does the self-cleavage read?
**A.** 0.25

**Q.** With U1C C68A as the variant, how does the self-cleavage read?
**A.** 0.37

**Q.** For U1G A15G, which self-cleavage is on record?
**A.** 0.84

**Q.** For U1G A35G, which self-cleavage is on record?
**A.** 1.25

**Q.** For U1C U69C, which self-cleavage is on record?
**A.** 0.46

**Q.** For U1C U69A, which self-cleavage is on record?
**A.** 0.44

**Q.** For A2G A3C, which self-cleavage is on record?
**A.** 0.89

**Q.** For A2G A3G, which self-cleavage is on record?
**A.** 1.01

**Q.** For U1C U54A, which self-cleavage is on record?
**A.** 1.03

**Q.** For U1C U54C, which self-cleavage is on record?
**A.** 0.68

**Q.** With U1C U54G as the variant, how does the self-cleavage read?
**A.** 0.67

**Q.** Which self-cleavage does the source give for A2G A64U here?
**A.** 0.33

**Q.** Which self-cleavage does the source give for A2G A64G here?
**A.** 0.55

**Q.** With A2G G33U as the variant, how does the self-cleavage read?
**A.** 0.3

**Q.** Which self-cleavage does the source give for A2G G33C here?
**A.** 0.32

**Q.** For A2G U41A, which self-cleavage is on record?
**A.** 0.42

**Q.** For A2G U41C, which self-cleavage is on record?
**A.** 0.78

**Q.** For A2G U41G, which self-cleavage is on record?
**A.** 0.49

**Q.** For A2C G36A, which self-cleavage is on record?
**A.** 0.22

**Q.** Which self-cleavage does the source give for A2G A28C here?
**A.** 0.38

**Q.** For A2G A28G, which self-cleavage is on record?
**A.** 0.4

**Q.** With A2G A28U as the variant, how does the self-cleavage read?
**A.** 0.52

**Q.** For A2G U48C, which self-cleavage is on record?
**A.** 0.28

**Q.** Which self-cleavage does the source give for A2G U48A here?
**A.** 0.09

**Q.** For A2G C79A, which self-cleavage is on record?
**A.** 1.01

**Q.** For A2G C79U, which self-cleavage is on record?
**A.** 0.82

**Q.** For U1C C38A, which self-cleavage is on record?
**A.** 0.18

**Q.** With U1C U78G as the variant, how does the self-cleavage read?
**A.** 0.94

**Q.** With U1C U78C as the variant, how does the self-cleavage read?
**A.** 0.8

**Q.** With U1C U78A as the variant, how does the self-cleavage read?
**A.** 1.11

**Q.** With A2G C37U as the variant, how does the self-cleavage read?
**A.** 0.66

**Q.** With A2G C37A as the variant, how does the self-cleavage read?
**A.** 0.27

**Q.** With A2G C32U as the variant, how does the self-cleavage read?
**A.** 0.3

**Q.** Which self-cleavage does the source give for A2G C32A here?
**A.** 0.1

**Q.** For U1G A64C, which self-cleavage is on record?
**A.** 0.26

**Q.** Which self-cleavage does the source give for U1C U51G here?
**A.** 0.97

**Q.** For U1C U51A, which self-cleavage is on record?
**A.** 0.8

**Q.** With U1C U51C as the variant, how does the self-cleavage read?
**A.** 0.7

**Q.** With A2C U72C as the variant, how does the self-cleavage read?
**A.** 0.9

**Q.** With A2C U72A as the variant, how does the self-cleavage read?
**A.** 0.72

**Q.** With A2G G24A as the variant, how does the self-cleavage read?
**A.** 0.3

**Q.** With A2G A15G as the variant, how does the self-cleavage read?
**A.** 0.53

**Q.** With A2G A15U as the variant, how does the self-cleavage read?
**A.** 0.41

**Q.** For U1G, which self-cleavage is on record?
**A.** 1.01

**Q.** Which self-cleavage does the source give for A2G U74G here?
**A.** 1.01

**Q.** For A2G U74C, which self-cleavage is on record?
**A.** 1.12

**Q.** For A2G U74A, which self-cleavage is on record?
**A.** 1.07

**Q.** With U1C C81G as the variant, how does the self-cleavage read?
**A.** 1.21

**Q.** With U1C U72A as the variant, how does the self-cleavage read?
**A.** 0.66

**Q.** With U1C U72C as the variant, how does the self-cleavage read?
**A.** 0.82

**Q.** Which self-cleavage does the source give for U1C U72G here?
**A.** 1

**Q.** With A2G A21U as the variant, how does the self-cleavage read?
**A.** 0.35

**Q.** For A2G A21G, which self-cleavage is on record?
**A.** 0.42

**Q.** With A2G A21C as the variant, how does the self-cleavage read?
**A.** 0.11

**Q.** With A2C C39A as the variant, how does the self-cleavage read?
**A.** 0.49

**Q.** With U1C G9C as the variant, how does the self-cleavage read?
**A.** 0.39

**Q.** Which self-cleavage does the source give for U1C G9A here?
**A.** 0.43

**Q.** Which self-cleavage does the source give for U1C A65U here?
**A.** 0.31

**Q.** For U1C A65G, which self-cleavage is on record?
**A.** 0.42

**Q.** Which self-cleavage does the source give for A2G C12U here?
**A.** 1.04

**Q.** With A2G C12G as the variant, how does the self-cleavage read?
**A.** 0.38

**Q.** With U1C U80A as the variant, how does the self-cleavage read?
**A.** 0.82

**Q.** For U1C U80C, which self-cleavage is on record?
**A.** 1

**Q.** For A2G C59A, which self-cleavage is on record?
**A.** 0.23
